Measured values taken from US20160252497A1 (NGM BIOPHARMACEUTICALS, published 2016).

Assays:
[1] = biological target: Human FGFR4 on primary human hepatocytes (human, UniProt P22455 22-802); assay: cell-based or functional assay
[2] = biological target: Mouse FGFR4 and mouse KLB co-expressed on rat L6 cells (mouse, UniProt Q03142 17-799; Q99N32 1-1043); assay: cell-based or functional assay
[3] = biological target: T1, Mouse FGFR4 on cells (L6 cells transfected with FGFR4 alone; primary mouse hepatocytes) (mouse, UniProt Q03142 17-799); assay: cell-based or functional assay
T1 sequence (looked up): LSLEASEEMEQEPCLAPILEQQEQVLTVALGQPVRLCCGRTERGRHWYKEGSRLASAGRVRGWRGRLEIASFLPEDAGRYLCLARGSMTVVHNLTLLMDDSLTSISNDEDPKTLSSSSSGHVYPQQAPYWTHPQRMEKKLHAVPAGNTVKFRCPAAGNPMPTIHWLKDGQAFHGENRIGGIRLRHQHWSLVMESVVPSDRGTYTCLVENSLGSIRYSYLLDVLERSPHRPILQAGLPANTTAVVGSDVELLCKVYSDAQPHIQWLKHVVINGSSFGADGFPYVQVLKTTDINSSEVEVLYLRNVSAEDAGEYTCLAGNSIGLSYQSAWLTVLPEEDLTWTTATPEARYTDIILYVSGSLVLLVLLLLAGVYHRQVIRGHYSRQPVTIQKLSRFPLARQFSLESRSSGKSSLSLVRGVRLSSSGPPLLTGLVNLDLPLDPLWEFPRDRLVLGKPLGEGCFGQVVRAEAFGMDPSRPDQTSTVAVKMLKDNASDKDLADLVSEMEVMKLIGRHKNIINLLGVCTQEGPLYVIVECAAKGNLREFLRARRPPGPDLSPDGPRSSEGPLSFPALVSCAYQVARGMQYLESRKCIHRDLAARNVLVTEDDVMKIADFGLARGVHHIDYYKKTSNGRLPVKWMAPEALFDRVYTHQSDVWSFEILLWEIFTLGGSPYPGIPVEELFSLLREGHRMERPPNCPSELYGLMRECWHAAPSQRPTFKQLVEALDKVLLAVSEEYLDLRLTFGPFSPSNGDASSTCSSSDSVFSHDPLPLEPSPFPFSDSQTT

[4] = biological target: Human FGFR4 and KLB expressed endogenously on Hep3B cells (human, UniProt P22455 22-802; Q86Z14 1-1044); assay: cell-based or functional assay
[5] = biological target: Rat FGFR4 on primary rat hepatocytes (rat, UniProt Q498D6 17-800); assay: cell-based or functional assay
[6] = biological target: T2, KLB (Klotho-beta), as used in the Biacore assay; assay: Biacore (data not shown)
T2 construct: The form of KLB in the assay is not described; also called Klotho-β

[7] = biological target: T3, Fc fusion protein of the extracellular domain (ECD) of FGFR4; assay: Biacore SPR, ligand flowed over chip coated with FGFR4 ECD-Fc, steady state fit
T3 construct: extracellular domain; Immobilized on Biacore flow cells; also called FGFR4-Fc chimeric protein; FGFR4-Fc
Source text: FIGS. 9A-9G depicts M70 binding and activation of FGFR4 in vitro. (A) Biacore SPR assay of the interaction between FGF19 and FGFR4-Fc chimeric proteins immobilized on flow cells. […] (B) Binding of M70 to FGFR4 by Biacore. Similar procedures to (A) were used. (C) Solid phase binding of M70 or FGF19 to FGFR4-KLB receptor complex. The bound ligands were detected using a biotinylated FGF19-specific polyclonal antibody. (D) Relative luciferase activity after stimulation with M70 or FGF19 in L6 cells transiently transfected with FGFR4 in the presence or absence of KLB. (E) M70 induces ERK phosphorylation in Hep3B cells. (F) M70 repressed Cyp7a1 expression in primary hepatocytes of mouse, rat, and human origin. Relative expression of Cyp7a1 mRNA in hepatocytes were determined by qRT-PCR and normalized to 18S RNA (mouse and rat) or actin (human) mRNA levels. (G) Repression of hepatic Cyp7a1 expression by M70 in mice. 12-week-old db/db mice were injected intraperitoneally with recombinant M70 or FGF19 protein. Mice were euthanized 4 hours after dosing and hepatic Cyp7a1 expression was evaluated by qRT-PCR and normalized to 18S RNA expression. Dose response curves of Cyp7a1 repression in mice were shown. All values represent mean±SEM.
To elucidate the molecular mechanism that underline M70's inability to induce liver tumors, the interaction of M70 to the known receptor complex of FGF19 was assessed. […]

[8] = biological target: FGFR4-KLB receptor complex (solid phase binding assay); assay: solid phase binding assay on the FGFR4-KLB receptor complex; bound ligand detected with a biotinylated FGF19-specific polyclonal antibody, absorbance at 450 nm
Source text: (B) Binding of M70 to FGFR4 by Biacore. Similar procedures to (A) were used. (C) Solid phase binding of M70 or FGF19 to FGFR4-KLB receptor complex. The bound ligands were detected using a biotinylated FGF19-specific polyclonal antibody. (D) Relative luciferase activity after stimulation with M70 or FGF19 in L6 cells transiently transfected with FGFR4 in the presence or absence of KLB. (E) M70 induces ERK phosphorylation in Hep3B cells. (F) M70 repressed Cyp7a1 expression in primary hepatocytes of mouse, rat, and human origin. Relative expression of Cyp7a1 mRNA in hepatocytes were determined by qRT-PCR and normalized to 18S RNA (mouse and rat) or actin (human) mRNA levels. (G) Repression of hepatic Cyp7a1 expression by M70 in mice. 12-week-old db/db mice were injected intraperitoneally with recombinant M70 or FGF19 protein. Mice were euthanized 4 hours after dosing and hepatic Cyp7a1 expression was evaluated by qRT-PCR and normalized to 18S RNA expression. Dose response curves of Cyp7a1 repression in mice were shown. All values represent mean±SEM.
To elucidate the molecular mechanism that underline M70's inability to induce liver tumors, the interaction of M70 to the known receptor complex of FGF19 was assessed. Surface plasmon resonance (SPR) analysis was used to measure direct binding of M70 or FGF19 to FGFR4. […]

FGFR4-KLB receptor complex (solid phase binding assay), sequence (chain, as listed by the source, chain 1 of 2): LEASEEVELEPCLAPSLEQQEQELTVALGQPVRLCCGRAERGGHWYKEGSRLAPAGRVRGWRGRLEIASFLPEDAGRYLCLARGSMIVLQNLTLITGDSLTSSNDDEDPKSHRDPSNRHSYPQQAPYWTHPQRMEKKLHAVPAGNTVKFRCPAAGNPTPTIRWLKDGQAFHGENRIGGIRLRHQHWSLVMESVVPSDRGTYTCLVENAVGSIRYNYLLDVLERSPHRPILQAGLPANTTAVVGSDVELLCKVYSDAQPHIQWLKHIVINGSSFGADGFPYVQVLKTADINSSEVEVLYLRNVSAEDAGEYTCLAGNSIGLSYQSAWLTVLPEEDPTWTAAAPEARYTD
FGFR4-KLB receptor complex (solid phase binding assay), sequence (chain, as listed by the source, chain 2 of 2): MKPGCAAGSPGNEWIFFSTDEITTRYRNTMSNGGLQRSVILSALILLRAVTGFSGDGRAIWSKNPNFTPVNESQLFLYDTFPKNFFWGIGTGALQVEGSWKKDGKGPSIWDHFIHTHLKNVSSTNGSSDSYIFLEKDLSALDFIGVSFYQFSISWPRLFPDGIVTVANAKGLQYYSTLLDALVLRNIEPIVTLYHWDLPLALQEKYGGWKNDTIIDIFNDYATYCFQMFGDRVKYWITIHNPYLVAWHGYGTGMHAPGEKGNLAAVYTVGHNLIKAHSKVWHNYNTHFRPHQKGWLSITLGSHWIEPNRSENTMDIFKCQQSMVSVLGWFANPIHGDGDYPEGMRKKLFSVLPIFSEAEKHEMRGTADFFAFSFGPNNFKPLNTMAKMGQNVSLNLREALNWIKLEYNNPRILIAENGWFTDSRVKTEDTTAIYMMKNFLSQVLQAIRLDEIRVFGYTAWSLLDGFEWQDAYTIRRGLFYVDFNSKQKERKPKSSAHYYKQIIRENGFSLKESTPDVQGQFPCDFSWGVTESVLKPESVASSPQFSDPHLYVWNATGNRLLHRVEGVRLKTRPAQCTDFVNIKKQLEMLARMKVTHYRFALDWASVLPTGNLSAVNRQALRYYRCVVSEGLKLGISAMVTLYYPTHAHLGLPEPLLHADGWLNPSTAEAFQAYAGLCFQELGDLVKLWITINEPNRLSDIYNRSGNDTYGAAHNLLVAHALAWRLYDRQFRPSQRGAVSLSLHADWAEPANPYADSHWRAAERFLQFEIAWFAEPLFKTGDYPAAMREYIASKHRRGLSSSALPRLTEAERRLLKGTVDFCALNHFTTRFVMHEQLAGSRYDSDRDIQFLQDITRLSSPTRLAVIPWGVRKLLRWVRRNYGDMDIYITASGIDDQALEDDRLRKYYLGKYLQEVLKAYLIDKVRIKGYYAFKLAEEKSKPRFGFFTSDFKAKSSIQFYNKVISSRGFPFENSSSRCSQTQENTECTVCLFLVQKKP
T3 sequence (P22455 22-369): as the sequence (chain, as listed by the source, chain 1 of 2) above
Human FGFR4 on primary human hepatocytes, sequence (P22455 22-802): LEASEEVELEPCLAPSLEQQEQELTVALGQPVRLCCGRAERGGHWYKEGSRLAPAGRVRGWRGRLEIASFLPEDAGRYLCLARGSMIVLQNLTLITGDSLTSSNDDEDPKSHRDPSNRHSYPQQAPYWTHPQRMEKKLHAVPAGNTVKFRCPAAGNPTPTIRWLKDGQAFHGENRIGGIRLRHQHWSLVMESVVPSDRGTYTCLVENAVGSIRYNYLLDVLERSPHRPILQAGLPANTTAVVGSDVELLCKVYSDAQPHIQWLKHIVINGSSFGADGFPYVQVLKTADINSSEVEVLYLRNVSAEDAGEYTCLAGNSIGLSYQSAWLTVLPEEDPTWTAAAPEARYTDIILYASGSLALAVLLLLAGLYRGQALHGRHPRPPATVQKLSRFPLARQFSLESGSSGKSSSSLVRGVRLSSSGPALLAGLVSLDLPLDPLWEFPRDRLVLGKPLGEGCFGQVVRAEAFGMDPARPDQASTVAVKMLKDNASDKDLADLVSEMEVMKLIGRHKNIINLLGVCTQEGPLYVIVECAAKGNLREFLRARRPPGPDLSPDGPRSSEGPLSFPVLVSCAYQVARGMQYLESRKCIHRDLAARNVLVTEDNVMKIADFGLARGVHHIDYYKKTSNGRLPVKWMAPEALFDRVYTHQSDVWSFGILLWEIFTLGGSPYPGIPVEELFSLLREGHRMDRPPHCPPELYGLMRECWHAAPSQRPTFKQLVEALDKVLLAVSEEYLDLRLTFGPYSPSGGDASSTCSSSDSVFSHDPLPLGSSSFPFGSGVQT
Human FGFR4 and KLB expressed endogenously on Hep3B cells, sequence (P22455 22-802, chain 1 of 2): as the sequence (P22455 22-802) above
Human FGFR4 and KLB expressed endogenously on Hep3B cells, sequence (Q86Z14 whole entry, chain 2 of 2): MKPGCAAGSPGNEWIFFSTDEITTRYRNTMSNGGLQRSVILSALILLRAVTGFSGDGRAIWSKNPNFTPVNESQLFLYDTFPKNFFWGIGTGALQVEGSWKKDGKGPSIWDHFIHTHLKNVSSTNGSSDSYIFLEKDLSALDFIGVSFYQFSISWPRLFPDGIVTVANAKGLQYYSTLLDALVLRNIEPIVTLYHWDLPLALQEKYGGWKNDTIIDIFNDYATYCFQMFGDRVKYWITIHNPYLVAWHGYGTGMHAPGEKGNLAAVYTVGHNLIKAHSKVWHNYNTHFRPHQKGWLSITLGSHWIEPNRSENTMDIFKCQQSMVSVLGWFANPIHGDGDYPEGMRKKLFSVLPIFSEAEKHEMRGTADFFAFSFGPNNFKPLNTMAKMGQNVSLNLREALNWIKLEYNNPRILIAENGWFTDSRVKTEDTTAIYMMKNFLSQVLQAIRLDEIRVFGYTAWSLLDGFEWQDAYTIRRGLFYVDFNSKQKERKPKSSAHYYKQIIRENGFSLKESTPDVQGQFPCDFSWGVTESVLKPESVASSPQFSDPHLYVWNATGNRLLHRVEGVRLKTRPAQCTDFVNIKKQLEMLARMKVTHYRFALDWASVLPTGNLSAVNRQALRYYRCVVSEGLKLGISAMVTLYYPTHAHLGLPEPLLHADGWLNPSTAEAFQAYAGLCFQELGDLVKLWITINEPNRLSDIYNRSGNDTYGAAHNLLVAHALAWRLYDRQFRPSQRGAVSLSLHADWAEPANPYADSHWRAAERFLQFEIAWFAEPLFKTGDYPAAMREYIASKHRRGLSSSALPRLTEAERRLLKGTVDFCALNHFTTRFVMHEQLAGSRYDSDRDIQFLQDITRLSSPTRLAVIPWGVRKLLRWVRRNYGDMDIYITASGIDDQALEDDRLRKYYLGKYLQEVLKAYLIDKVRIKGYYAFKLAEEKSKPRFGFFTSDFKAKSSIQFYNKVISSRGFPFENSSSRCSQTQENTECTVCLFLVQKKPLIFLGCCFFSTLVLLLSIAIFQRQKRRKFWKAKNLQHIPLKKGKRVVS
Rat FGFR4 on primary rat hepatocytes, sequence (Q498D6 17-800): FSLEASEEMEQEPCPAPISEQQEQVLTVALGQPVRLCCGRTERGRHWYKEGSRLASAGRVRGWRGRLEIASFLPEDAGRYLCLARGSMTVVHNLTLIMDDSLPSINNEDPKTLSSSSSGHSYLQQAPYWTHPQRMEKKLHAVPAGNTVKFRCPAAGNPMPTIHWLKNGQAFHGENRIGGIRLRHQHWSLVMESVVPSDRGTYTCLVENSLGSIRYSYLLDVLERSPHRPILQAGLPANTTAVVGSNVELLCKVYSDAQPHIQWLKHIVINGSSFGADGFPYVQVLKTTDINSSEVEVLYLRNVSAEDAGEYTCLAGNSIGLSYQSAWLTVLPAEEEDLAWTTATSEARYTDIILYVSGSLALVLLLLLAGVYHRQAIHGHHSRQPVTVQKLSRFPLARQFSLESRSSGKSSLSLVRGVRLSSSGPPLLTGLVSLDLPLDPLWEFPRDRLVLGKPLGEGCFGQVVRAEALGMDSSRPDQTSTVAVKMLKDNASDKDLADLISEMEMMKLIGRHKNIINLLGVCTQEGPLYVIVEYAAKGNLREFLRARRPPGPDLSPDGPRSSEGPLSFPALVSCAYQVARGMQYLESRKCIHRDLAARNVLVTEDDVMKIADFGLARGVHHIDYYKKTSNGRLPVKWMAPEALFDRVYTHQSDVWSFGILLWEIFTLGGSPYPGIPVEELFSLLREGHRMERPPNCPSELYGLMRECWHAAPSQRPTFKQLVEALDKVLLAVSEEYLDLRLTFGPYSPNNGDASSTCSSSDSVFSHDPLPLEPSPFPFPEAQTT
Mouse FGFR4 and mouse KLB co-expressed on rat L6 cells, sequence (Q99N32 whole entry, one chain of several): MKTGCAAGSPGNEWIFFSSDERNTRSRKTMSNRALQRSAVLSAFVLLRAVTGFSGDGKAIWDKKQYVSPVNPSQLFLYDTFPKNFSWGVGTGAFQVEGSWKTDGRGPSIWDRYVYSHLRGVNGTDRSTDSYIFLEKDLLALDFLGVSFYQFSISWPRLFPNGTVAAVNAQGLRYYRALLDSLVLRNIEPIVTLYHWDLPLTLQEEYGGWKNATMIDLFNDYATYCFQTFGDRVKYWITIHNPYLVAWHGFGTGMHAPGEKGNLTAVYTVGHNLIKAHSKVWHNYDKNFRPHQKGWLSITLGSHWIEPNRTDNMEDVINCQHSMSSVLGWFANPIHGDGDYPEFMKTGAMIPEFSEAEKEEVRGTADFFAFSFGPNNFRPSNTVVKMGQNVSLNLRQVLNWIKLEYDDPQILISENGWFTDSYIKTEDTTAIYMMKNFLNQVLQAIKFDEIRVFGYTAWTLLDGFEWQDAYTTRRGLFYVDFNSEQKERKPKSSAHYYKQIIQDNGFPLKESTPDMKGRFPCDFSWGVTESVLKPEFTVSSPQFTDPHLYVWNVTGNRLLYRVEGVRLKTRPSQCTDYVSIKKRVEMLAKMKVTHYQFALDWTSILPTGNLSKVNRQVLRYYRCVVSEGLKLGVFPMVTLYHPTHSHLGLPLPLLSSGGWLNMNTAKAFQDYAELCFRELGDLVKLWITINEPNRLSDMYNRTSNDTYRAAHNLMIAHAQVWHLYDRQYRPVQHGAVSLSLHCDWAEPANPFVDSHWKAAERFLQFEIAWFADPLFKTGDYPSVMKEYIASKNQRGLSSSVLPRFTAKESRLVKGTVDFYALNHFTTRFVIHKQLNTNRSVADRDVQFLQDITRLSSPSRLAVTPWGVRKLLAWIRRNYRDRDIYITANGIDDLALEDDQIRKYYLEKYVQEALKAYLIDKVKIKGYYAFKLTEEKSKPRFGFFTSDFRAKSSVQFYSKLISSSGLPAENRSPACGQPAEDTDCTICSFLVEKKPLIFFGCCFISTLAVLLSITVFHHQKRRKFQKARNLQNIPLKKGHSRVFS

repression of Cyp7a1 expression in primary human hepatocytes (IC50) [1]: 0.0068 nM
GAL-Elk1 luciferase reporter activity in L6 cells co-expressing FGFR4 and KLB (EC50) [2]: 0.038 nM
GAL-Elk1 luciferase reporter activity in L6 cells transfected with FGFR4 alone (reduction in potency against FGFR4 plus KLB) [3]: 500 fold
repression of Cyp7a1 expression in primary mouse hepatocytes (IC50) [3]: 0.00064 nM
phosphorylation and activation of ERK in Hep3B cells (EC50) [4]: 0.38 nM
repression of Cyp7a1 expression in primary rat hepatocytes (IC50) [5]: 0.00049 nM
Kd [6]: 0.0241 nM
Kd [7]: 134 nM
EC50 (read off the curve) [8]: ~2 nM
B1: M70 (FGF19 variant carrying 3 amino acid substitutions A30S, G31S, H33L and a 5-amino acid deletion) (ligand)
chain: MRDSSPLVHYGWGDPIRLRHLYTSGPHGLSSCFLRIRADGVVDCARGQSAHSLLEIKAVALRTVAIKGVHSVRYLCMGADGKMQGLLQYSEEDCAFEEEIRPDGYNVYRSEKHRLPVSLSSAKQRQLYKNRGFLPLSHFLPMLPMVPEEPEDLRGHLESDMFSSPLETDSMDPFGLVTGLEAVRSPSFEK
notes: Engineered variant of human FGF19; also called FGF19 variant M70; recombinant M70 protein
